The results in this text go back to patent US20030068788A1.

Data set [1] deals with T1, ferredoxin encoded by fd233 from strain I-1529.
T1 chain: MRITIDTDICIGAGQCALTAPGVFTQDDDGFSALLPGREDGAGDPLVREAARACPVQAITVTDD

Data set [2] addresses T2, ferredoxin encoded by fd233 from strain I-1529 (Streptomyces tubercidicus strain I-1529).
T2 sequence: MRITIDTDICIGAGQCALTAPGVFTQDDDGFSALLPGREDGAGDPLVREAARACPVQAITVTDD
The data set is described as follows: cell-based or functional assay.

Data set [3] concerns the target T3, P450Ema1A, N-terminally truncated P450Ema1 encoded by ema1A (Streptomyces tubercidicus strain R-922).
T3 sequence: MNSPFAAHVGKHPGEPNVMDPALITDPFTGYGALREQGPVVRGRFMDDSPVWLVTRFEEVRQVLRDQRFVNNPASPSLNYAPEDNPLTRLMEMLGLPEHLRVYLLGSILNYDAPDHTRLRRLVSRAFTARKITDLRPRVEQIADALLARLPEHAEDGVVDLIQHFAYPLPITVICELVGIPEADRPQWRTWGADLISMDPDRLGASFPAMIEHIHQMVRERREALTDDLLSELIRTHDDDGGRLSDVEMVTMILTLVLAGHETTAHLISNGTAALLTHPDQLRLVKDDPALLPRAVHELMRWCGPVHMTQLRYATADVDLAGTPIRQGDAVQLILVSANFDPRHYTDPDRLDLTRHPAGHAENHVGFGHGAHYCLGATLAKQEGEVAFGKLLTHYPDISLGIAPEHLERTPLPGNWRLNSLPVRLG
The data set is described as follows: cell-based or functional assay.

Data set [4] concerns the target T4, P450Ema2 monooxygenase from Streptomyces tubercidicus strain I-1529 (Streptomyces tubercidicus strain I-1529).
T4 sequence: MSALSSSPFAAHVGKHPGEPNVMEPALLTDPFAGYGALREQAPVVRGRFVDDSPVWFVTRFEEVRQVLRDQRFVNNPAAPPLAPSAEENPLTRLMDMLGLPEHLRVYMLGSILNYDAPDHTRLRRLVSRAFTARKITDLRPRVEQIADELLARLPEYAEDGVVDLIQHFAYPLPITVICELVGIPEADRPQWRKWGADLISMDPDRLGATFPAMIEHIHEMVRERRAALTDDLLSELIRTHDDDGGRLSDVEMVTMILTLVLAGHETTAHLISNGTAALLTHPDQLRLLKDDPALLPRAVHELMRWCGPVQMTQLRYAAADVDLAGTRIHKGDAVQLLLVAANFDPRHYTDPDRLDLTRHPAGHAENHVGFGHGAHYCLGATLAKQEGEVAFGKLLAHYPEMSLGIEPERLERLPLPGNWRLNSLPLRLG
The data set is described as follows: cell-based or functional assay.

For data set [5], the target named is T5, P450Ema1 monooxygenase from Streptomyces tubercidicus strain R-922 (Streptomyces tubercidicus strain R-922).
T5 sequence: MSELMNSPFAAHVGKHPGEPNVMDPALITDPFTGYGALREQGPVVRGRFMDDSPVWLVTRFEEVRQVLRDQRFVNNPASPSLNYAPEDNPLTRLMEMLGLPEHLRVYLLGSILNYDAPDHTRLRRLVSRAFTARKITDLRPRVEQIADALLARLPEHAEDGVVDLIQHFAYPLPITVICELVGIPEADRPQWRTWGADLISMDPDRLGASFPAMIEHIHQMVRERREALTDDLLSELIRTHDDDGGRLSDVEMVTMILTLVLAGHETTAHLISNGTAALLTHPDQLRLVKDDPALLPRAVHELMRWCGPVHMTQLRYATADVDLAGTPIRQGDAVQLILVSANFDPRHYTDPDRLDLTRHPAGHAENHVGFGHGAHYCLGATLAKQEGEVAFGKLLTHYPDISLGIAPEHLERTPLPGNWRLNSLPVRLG
The data set is described as follows: cell-based or functional assay.

B1: ferredoxin reductase encoded by fre12 (protein)
chain: MPAARRRLRPPHRSGDLPARPPGRAHPPRDRPGRHDLRPSRRGGGHRRMKSVAVIGASLAGLYAARSLRSQGFDGRLVIVGDECHGPYDRPPLSKDFLTGATDPGRLALADAEEIAELDAEWLLGTRATGLDTGGRTVLLDGGRSLTTDGVVLATGAAPRLLPGPVPAGVHTLRTLDDAQALRADLAPAPVRVVVIGGGFIGAEVASSCAALGHDVTVVEAAPLPLVPQLGHAMAEICAALHADHGVTLLTGTGVARLRSEGDGRRVTGVELTDGRLLPADVVVVGIGVRPRTAWLTDSGLPLDDGVLCDAGCVTPLPAVVAVGDVARVDGARAEHWTSATEQAAVAARNLLAGSTVATHRSLPYFWSDQYGVRIQFAGHRLPTDTPRVLEGSPDDRSFLACYERDGRTTAVLALNRPRPFMRLRRELARTALSATT
B1: the “biocatalysis activity, S. lividans ZX7 with ema1/fd233/fre operons in pTUA, pTBBKA and pEAA” value in data set [1] is given as “In each case there was no impact in S. lividans by any of the fre genes on biocatalysis activity”.

B2: ferredoxin reductase encoded by fre16 from strain I-1529 (enzyme)
chain: VVDAHQTFVIVGGGLAGAKAAETLRAEGFTGRVILICDERDHPYERPPLSKGFLLGKEERDSVFVHEPAWYAQAQIELHLGQPAVRLDPEAKTVRLGDGTLIAYDKLLLATGAEPRRLDIPGTGLAGVHHLRRLAHAERLRGVLASLGRDNGHLVIAGAGWIGLEVAAAARSYGAEVTVVEAAPTPLHGILGPELGGLFTELHRAHGVRFHFGARFTEIVGQDGMVLAVRTDDGEEHPAHDVLAAIGAAPRTALAEQAGLDLADPEAGGGVAVDATLRTSDPYIYAAGDVAAADHPLLDTRLRVEHWANALNGGPAAARAMLGQDISYDRVPYFFSDQYDVGMEYSGYAPPGSYAQVVCRGDVAKREFIAFWLGEDGRLLAGMNVNVWDVAETIQQLIRGGVRLEPGELADPEVPLTSLLP
For the molecule B2, in data set [2], the conversion of avermectin to 4″-keto-avermectin, P. putida ATCC 17453 with the ema1/fd233/fre16 operon (whole cell assay; 23% without fre16) is 44 % conversion. Also, the “biocatalysis activity, S. lividans ZX7 with ema1/fd233/fre operons in pTUA, pTBBKA and pEAA” value in data set [1] is on record as “In each case there was no impact in S. lividans by any of the fre genes on biocatalysis activity”.

B3: ferredoxin reductase encoded by fre3 (protein)
chain: VVDAHQTFVIVGGGLAGAKAAETLRAEGFTGRVILICDERDHPYERPPLSKGFLLGKEERDSVFVHEPAWYAQAQIELHLGQPAVRLDPEGRTVRLGDGTLIAYDKLLLATGAEPRRLDIPGTGLAGVHHLRRLAHAERLRGVLASLGRDNGHLVIAGAGWIGLEVAAAARSYGAEVTVVEAAPTPLHGILGPELGGLFTDLHREHGVRFHFGARFTEIVGEGGMVLAVRTDDGEEHPAHDVLAAIGAAPRTALAEQAGLDLADPETGGGVAVDAALRTSDPYIYAAGDVAAADHPLLDTRLRVEHWANALNGGPAAARAMLGQDISYDRIPYFFSDQYDVGMEYSGYAPPGSYAQVVCRGDVAKREFIAFWLAADGRLLAGMNVNVWDVAESIQQLIRSGAPLEPGALADPQVPLAALLP
For the molecule B3, the “biocatalysis activity, S. lividans ZX7 with ema1/fd233/fre operons in pTUA, pTBBKA and pEAA” value in data set [1] was “In each case there was no impact in S. lividans by any of the fre genes on biocatalysis activity”.

B4: ferredoxin reductase encoded by fre14 (protein)
chain: MAQNTAFIIAGAGLAGAKAAETLRAEGFGGPVLLLGDERERPYERPPLSKGYLLGTSEREKAYVHPPQWYAEHDVDLRLGNAVTALDPAGHEVTLADGSRLGYAKLLLATGSTPRRLPVPGADLDGVHTLRYLADSDRLKDLFRSASRIVVIGGGWIGLETTAAARAAGVEVTVLESAPLPLLGVLGREVAQVFADLHTEHGVALRCDTQVTEITGTNGAVDGVRLADGTRIAADAVIVGVGITPNSETAAAAGLKVDNGVVVDERLCSSHPDIYAAGDVANAYHPLLGKHLRVEHWANALHQPKTAARAMLGGEAGYDRLPYFFTDQYDLGMEYTGHVEPGGYDRVVFRGDTGAREFIAFWLSGGRVLAGMNVNVWDVTDPIRALVASGRAVDPERLADADVPLADLVP
B4: the “biocatalysis activity, S. lividans ZX7 with ema1/fd233/fre operons in pTUA, pTBBKA and pEAA” value in data set [1] is “In each case there was no impact in S. lividans by any of the fre genes on biocatalysis activity”.

B5: ferredoxin encoded by fd233 from strain I-1529 (protein)
chain: MRITIDTDICIGAGQCALTAPGVFTQDDDGFSALLPGREDGAGDPLVREAARACPVQAITVTDD
For B5, in data set [3], the % Conversion of avermectin, 16 hrs (S. avermitilis MOS-0001 + pTBBKA-ema1A/fd233, whole cells) stood at 28.5 % conversion and the % Conversion of avermectin, 16 hrs (S. avermitilis MOS-0001 + pTUA-ema1A/fd233, whole cells) turned out to be 24 % conversion. For the same molecule, in data set [4], the % Conversion of Avermectin, 2 hour (S. lividans ZX7 + pTUA-ema2/fd233, whole cells) stood at 1.85 % conversion and the % Conversion of Avermectin, 16 hour (S. lividans ZX7 + pTUA-ema2/fd233, whole cells) turned out to be 6.4 % conversion. Moreover, in data set [5], the % Conversion of Avermectin, 2 hour (S. lividans ZX7 + pEAA-ema1/fd233, whole cells) was found to be 8.26 % conversion; the % Conversion of Avermectin, 2 hour (S. lividans ZX7 + pTBBKA-ema1/fd233, whole cells) is 8.89 % conversion; the % Conversion of Avermectin, 2 hour (S. lividans ZX7 + pTUA-ema1/fd233, whole cells) was 23.3 % conversion; the % Conversion of Avermectin, 16 hour (Pseudomonas putida + pRK-ema1/fd233, whole cells) is 32 % conversion. In data set [5], the % Conversion of Avermectin, 16 hour (S. lividans ZX7 + pEAA-ema1/fd233, whole cells) stood at 10.7 % conversion; the % Conversion of Avermectin, 16 hour (S. lividans ZX7 + pTBBKA-ema1/fd233, whole cells) was determined as 31 % conversion; the % Conversion of Avermectin, 16 hour (S. lividans ZX7 + pTUA-ema1/fd233, whole cells) came out at 61.2 % conversion; the biocatalysis activity of pTUA-ema1/fd233 in S. lividans relative to pTUA-ema1 (fold) lay in the range of 1.5 to 3 fold.
